Experimental data reported in publication PMC4618531 (BMC Microbiology, 2015).

How the values were obtained:
RsFabG2 = target: T1, RsFabG2 (Ralstonia pseudosolanacearum, UniProt Q8XSV8); settings: 50 μM NADPH, malonyl-ACP plus octanoyl-ACP or tetradecanoyl-ACP, 0.1 M sodium phosphate pH 7.0, 37 °C
T1 construct: gene fabG2

[1] = target: Ralstonia solanacearum FabG1 (3-ketoacyl-ACP reductase, RSc1052), N-terminal hexahistidine-tagged (Ralstonia solanacearum GMI1000); assay: SEC
[2] = target: Ralstonia solanacearum FabG2 (3-ketoacyl-ACP reductase, RSp0359), N-terminal hexahistidine-tagged (Ralstonia solanacearum GMI1000); assay: SEC
purified protein [3] = substrate: NC(=O)C1=CN([C@@H]2O[C@H](COP(=O)(O)OP(=O)(O)OC[C@H]3O[C@@H](n4cnc5c(N)ncnc54)[C@H](OP(=O)(O)O)[C@@H]3O)[C@@H](O)[C@H]2O)C=CC1; assay: purified protein; settings: 200 μM acetoacetyl-CoA, 0.1 M sodium phosphate pH 7, 0.1 M LiCl, varied: cofactor
purified protein [4] = substrate: CC(=O)CC(=O)SCCNC(=O)CCNC(=O)[C@H](O)C(C)(C)COP(=O)(O)OP(=O)(O)OC[C@H]1O[C@@H](n2cnc3c(N)ncnc32)[C@H](O)[C@@H]1OP(=O)(O)O; assay: purified protein; settings: 200 μM NADPH, 0.1 M sodium phosphate pH 7, 0.1 M LiCl

`NC(=O)C1=CN([C@@H]2O[C@H](COP(=O)(O)OP(=O)(O)OC[C@H]3O[C@@H](n4cnc5c(N)ncnc54)[C@H](OP(=O)(O)O)[C@@H]3O)[C@@H](O)[C@H]2O)C=CC1` [NADPH] was tested, and the “reconstituted 3-ketoacyl-ACP reduction with EcFabB and EcFabZ, urea gel” value (RsFabG2) was “Upon the addition of NADPH, a 3-ketoacyl-ACP reductase (EcFabG, RsFabG1 or RsFabG2) and EcFabZ”.

“Ralstonia solanacearum FabG1 (3-ketoacyl-ACP reductase, RSc1052), N-terminal hexahistidine-tagged (enzyme)” gave a stoichiometry N [1] of 4.

With “Ralstonia solanacearum FabG2 (3-ketoacyl-ACP reductase, RSp0359), N-terminal hexahistidine-tagged (enzyme)” the stoichiometry N [2] was 4.

B1: EcFabG (Escherichia coli K-12) (protein)
chain: MNFEGKIALVTGASRGIGRAIAETLAARGAKVIGTATSENGAQAISDYLGANGKGLMLNVTDPASIESVLEKIRAEFGEVDILVNNAGITRDNLLMRMKDEEWNDIIETNLSSVFRLSKAVMRAMMKKRHGRIITIGSVVGTMGNGGQANYAAAKAGLIGFSKSLAREVASRGITVNVVAPGFIETDMTRALSDDQRAGILAQVPAGRLGGAQEIANAVAFLASDEAAYITGETLHVNGGMYMV
B1 showed a Km (purified protein [3]) of 5.41 ± 1.3 µmol/L, a Vmax (purified protein [3]) of 3.54 µmol/min/mg and a kcat (purified protein [3]) of 1.65 ± 0.43 s⁻¹. The Km (purified protein [4]) was 4.3726 ± 0.1051 mM, the Vmax (purified protein [4]) was 97 µmol/min/mg and the kcat (purified protein [4]) was 45.28 ± 4.3 s⁻¹.
